Article PMC5573810

Experiments:
[1] = molecular target: clade-C (ZM109) V1V2-ferritin nanoparticle (V1V2-FR) (HIV-1 ZM109 (clade C) | not stated) (UniProt Q9ZLI1); test: ELISA
[2] = molecular target: gp120-ferritin (gp120-FR) nanoparticle; test: ELISA

PGT121 gave an EC50 [1] of 0.87 µg/mL and an EC50 [2] of 0.077 µg/mL.
